{"source": "patent US8092810B2", "about": "“Use of polypeptides having antimicrobial activity” (Novozymes A/S, priority 2006, dated 2012)", "molecules": {"B1": {"name": "Lento: Bacillus licheniformis polypeptide having amino acids 1-85 of SEQ ID NO: 2, purified from ATCC 14580 fermentation broth (protein)", "chain": "MKNHLYEKKKRKPLTRTIKATLAVLTMSIALVGGATVPSFAWVNPGYHYQYPSEGGTWRYGFVNAGLRSEYNHPTKVHGSTVQKL", "modifications": "Bacillus licheniformis ATCC 14580"}}, "key": {"[1]": {"test_system": "Burkholderia cepacia ATCC 25416", "test": "MIC broth microdilution", "type": "cell-based", "conditions": "Burkholderia cepacia ATCC 25416, Gram −; MHB, 35° C., 24 hours"}, "[2]": {"test_system": "Bacillus cereus ATCC 4342", "test": "MIC broth microdilution", "type": "cell-based", "experimental": "(§1) Briefly, the MIC was determined by microbroth dilution assay in a 96 well plate. 4-5 colonies of each bacterium tested were added to 5 ml of MHB, placed in a 35° C. shaker until the OD 600 nm reached 0.08-0.10. The inoculum was diluted 1:100 and 50 microliters were added to each well which contained 50 microliters of serial two fold dilutions of Lento, vancomycin or ciprofloxacin. Each concentration of antibiotic or Lento was tested in duplicate. The plate was placed at 35° C. overnight. MICs were determined after 24 hours incubation and defined by the well containing the lowest amount of antibiotic with no visible growth."}, "[3]": {"test_system": "Corynebacterium jeikeium ATCC 43216", "test": "MIC broth microdilution", "type": "cell-based", "conditions": "Corynebacterium jeikeium ATCC 43216, Gram +; MHB, 35° C., 24 hours", "experimental": "as §1"}, "[4]": {"test_system": "Corynebacterium jeikeium ATCC 43734", "test": "MIC broth microdilution", "type": "cell-based", "conditions": "Corynebacterium jeikeium ATCC 43734, Gram +; MHB, 35° C., 24 hours", "experimental": "as §1"}, "[5]": {"test_system": "Enterococcus faecalis (VRE) ATCC 51299", "test": "MIC broth microdilution", "type": "cell-based", "experimental": "as §1"}, "[6]": {"test_system": "Enterococcus faecium ATCC 51559", "test": "MIC broth microdilution", "type": "cell-based", "experimental": "as §1"}, "[7]": {"test_system": "Micrococcus luteus ATCC 9341", "test": "MIC broth microdilution", "type": "cell-based", "experimental": "as §1"}, "[8]": {"test_system": "Shigella dysenteriae ATCC 11835", "test": "MIC broth microdilution", "type": "cell-based", "conditions": "Shigella dysenteriae ATCC 11835, Gram −; MHB, 35° C., 24 hours", "experimental": "as §1"}, "[9]": {"test_system": "Staphylococcus aureus ATCC 29213", "test": "MIC broth microdilution", "type": "cell-based", "conditions": "Staphylococcus aureus ATCC 29213, Gram +; MHB, 35° C., 24 hours", "experimental": "as §1"}, "[10]": {"test_system": "Staphylococcus aureus ATCC 29737", "test": "MIC broth microdilution", "type": "cell-based", "experimental": "as §1"}, "[11]": {"test_system": "Staphylococcus epidermidis ATCC 12228", "test": "MIC broth microdilution", "type": "cell-based", "conditions": "Staphylococcus epidermidis ATCC 12228, Gram +; MHB, 35° C., 24 hours", "experimental": "as §1"}, "[12]": {"test_system": "Streptococcus pneumoniae (PSRSP) ATCC 700671", "test": "MIC broth microdilution", "type": "cell-based", "conditions": "Streptococcus pneumoniae (PSRSP) ATCC 700671, Gram +; MHB, 35° C., 24 hours", "experimental": "as §1"}, "[13]": {"test_system": "Streptococcus pneumoniae (TCRSP) ATCC 700902", "test": "MIC broth microdilution", "type": "cell-based", "conditions": "Streptococcus pneumoniae (TCRSP) ATCC 700902, Gram +; MHB, 35° C., 24 hours", "experimental": "as §1"}, "[14]": {"test_system": "Streptococcus pneumoniae ATCC 49619", "test": "MIC broth microdilution", "type": "cell-based", "conditions": "Streptococcus pneumoniae ATCC 49619, Gram +; MHB, 35° C., 24 hours", "experimental": "as §1"}, "[15]": {"test_system": "Streptococcus pneumoniae ATCC 700676", "test": "MIC broth microdilution", "type": "cell-based", "conditions": "Streptococcus pneumoniae ATCC 700676, Gram +; MHB, 35° C., 24 hours", "experimental": "as §1"}, "[16]": {"test_system": "Bacillus cereus ATCC 4342", "test": "MBC determination", "type": "cell-based", "conditions": "concentration that kills 99.9%", "experimental": "Minimal inhibitory concentrations (MIC) and minimal bactericidal concentrations (MBC) were determined by broth microdilution in MHB as described by the NCCLS (National Committee for Clinical Laboratory Standards, in: Methods for Determining Bactericidal Activity of Antimicrobial Agents; Approved Guideline. National Committee for Clinical Laboratory Standards (M26-A), Vol. 19, 1999).\nBriefly, the MIC was determined by microbroth dilution assay in a 96 well plate. 4-5 colonies of each bacterium tested were added to 5 ml of MHB, placed in a 35° C. shaker until the OD 600 nm reached 0.08-0.10. […] MICs were determined after 24 hours incubation and defined by the well containing the lowest amount of antibiotic with no visible growth.\nTo determine the MBC, 10 microliters from each well with no growth was plated in duplicate and allowed to grow overnight on Mueller-Hinton agar (Difco Catalog number 225250, Becton Dickinson and Company, Sparks, Md., US; 2.0 g beef extract powder, 17.5 g acid digest of casein, 1.5 g starch, 17 g agar—per 1000 ml of water). The MBC is based on the inoculum concentration, which was determined by plating in duplicate 50 microliters of 10^−2, 10^−3, and 10^−4 of the inoculum used for MICs. MBCs were determined as described by the NCCLS guidelines (cited above). […]"}, "[17]": {"test_system": "Enterococcus faecalis (VRE) ATCC 51299", "test": "MBC determination", "type": "cell-based", "conditions": "concentration that kills 99.9%", "experimental": "as §1\n(§2) MBCs were determined as described by the NCCLS guidelines (cited above)."}, "[18]": {"test_system": "Enterococcus faecium ATCC 51559", "test": "MBC determination", "type": "cell-based", "conditions": "concentration that kills 99.9%", "experimental": "as §1, §2"}, "[19]": {"test_system": "Micrococcus luteus ATCC 9341", "test": "MBC determination", "type": "cell-based", "conditions": "concentration that kills 99.9%", "experimental": "as §1, §2"}, "[20]": {"test_system": "Staphylococcus aureus ATCC 29737", "test": "MBC determination", "type": "cell-based", "conditions": "concentration that kills 99.9%", "experimental": "as §1, §2"}, "[21]": {"test_system": "gram-positive bacterial strains", "test": "MIC assay, summary over gram-positive strains", "type": "cell-based", "conditions": "a number of gram-positive strains, with the exception of certain strains of Staphylococcus", "experimental": "as §1"}, "[22]": {"test_system": "gram-negative bacterial strains", "test": "MIC assay, summary over gram-negative strains", "type": "cell-based", "conditions": "gram-negative bacterial strains of Table 1", "experimental": "as §1"}, "[23]": {"test_system": "all bacteria tested (Table 2)", "test": "MBC versus MIC, bactericidal classification", "type": "cell-based", "conditions": "all bacteria tested with the exception of E. faecium ATCC 51559", "experimental": "To determine the MBC, 10 microliters from each well with no growth was plated in duplicate and allowed to grow overnight on Mueller-Hinton agar (Difco Catalog number 225250, Becton Dickinson and Company, Sparks, Md., US; 2.0 g beef extract powder, 17.5 g acid digest of casein, 1.5 g starch, 17 g agar—per 1000 ml of water). The MBC is based on the inoculum concentration, which was determined by plating in duplicate 50 microliters of 10^−2, 10^−3, and 10^−4 of the inoculum used for MICs. MBCs were determined as described by the NCCLS guidelines (cited above). The MBC is the concentration of the tested compound that kills 99.9% of the microorganism inoculated into the well.\nBased on this definition, Lento is bactericidal against all bacteria tested with the exception of E. faecium ATCC 51559."}, "[24]": {"test": "Thermostability by Differential Scanning calorimetry (DSC)", "type": "physicochemical", "experimental": "Differential Scanning calorimetry (DSC) was used to determine temperature stability of the Lento protein at pH 2.5, 4.0 and 7.0. Purified Lento in a concentration of about 2 mg/ml was dialysed over night at 4° C. against appropriate buffer and run on a VP-DSC instrument (MicroCal) with a constant scan rate of 1.5° C./min from 20 to 90° C. Data-handling was performed using the MicroCal Origin software (version 4.10), and denaturation temperature was defined as temperature at the apex of the enthalpy peak. […] In 10 mM sodium acetate, 50 mM NaCl, pH 4.0, Lento denatured at 69° C., and in 10 mM sodium phosphate, 50 mM NaCl, pH 7.0 the denaturation temperature was 60° C."}}, "data": [{"molecule": "B1", "values": [{"measurement": "MIC", "setting": "[1]", "value": ">256", "unit": "microgram/ml"}, {"measurement": "MIC", "setting": "[2]; Bacillus cereus ATCC 4342, Gram +, MHB, 35° C., 24 hours", "value": "0.5-1 microgram/ml"}, {"measurement": "MIC", "setting": "[2]; Table 2 (MBC results), Bacillus cereus ATCC 4342", "value": 1, "unit": "microgram/ml"}, {"measurement": "MIC", "setting": "[3]", "value": 0.125, "unit": "microgram/ml"}, {"measurement": "MIC", "setting": "[4]", "value": 2, "unit": "microgram/ml"}, {"measurement": "MIC", "setting": "[5]; Enterococcus faecalis (VRE) ATCC 51299, Gram +, MHB, 35° C., 24 hours", "value": 8, "unit": "microgram/ml"}, {"measurement": "MIC", "setting": "[5]; Table 2 (MBC results), Enterococcus faecalis (VRE) ATCC 51299", "value": 64, "unit": "microgram/ml"}, {"measurement": "MIC", "setting": "[6]; Enterococcus faecium ATCC 51559, Gram +, MHB, 35° C., 24 hours", "value": 4, "unit": "microgram/ml"}, {"measurement": "MIC", "setting": "[6]; Table 2 (MBC results), Enterococcus faecium ATCC 51559", "value": 4, "unit": "microgram/ml"}, {"measurement": "MBC", "setting": "[7]; Micrococcus luteus ATCC 9341, Gram +, MHB, 35° C., 24 hours", "value": 8, "unit": "microgram/ml"}, {"measurement": "MBC", "setting": "[7]; Table 2 (MBC results), Micrococcus luteus ATCC 9341", "value": 8, "unit": "microgram/ml"}, {"measurement": "MIC", "setting": "[8]", "value": ">256", "unit": "microgram/ml"}, {"measurement": "MIC", "setting": "[9]", "value": 64, "unit": "microgram/ml"}, {"measurement": "MBC", "setting": "[10]; Staphylococcus aureus ATCC 29737, Gram +, MHB, 35° C., 24 hours", "value": "8-32 microgram/ml"}, {"measurement": "MBC", "setting": "[10]; Table 2 (MBC results), Staphylococcus aureus ATCC 29737", "value": 32, "unit": "microgram/ml"}, {"measurement": "MIC", "setting": "[11]", "value": 128, "unit": "microgram/ml"}, {"measurement": "MIC", "setting": "[12]", "value": 2, "unit": "microgram/ml"}, {"measurement": "MIC", "setting": "[13]", "value": "4-8 microgram/ml"}, {"measurement": "MIC", "setting": "[14]", "value": "1-2 microgram/ml"}, {"measurement": "MIC", "setting": "[15]", "value": 4, "unit": "microgram/ml"}, {"measurement": "MBC", "setting": "[16]", "value": 1, "unit": "microgram/ml"}, {"measurement": "MBC", "setting": "[17]", "value": 64, "unit": "microgram/ml"}, {"measurement": "MBC", "setting": "[18]", "value": ">64", "unit": "microgram/ml"}, {"measurement": "MBC", "setting": "[19]", "value": 8, "unit": "microgram/ml"}, {"measurement": "MBC", "setting": "[20]", "value": 32, "unit": "microgram/ml"}, {"measurement": "antimicrobial effect on gram-positive bacterial strains", "setting": "[21]", "value": "pronounced antimicrobial effect"}, {"measurement": "antimicrobial effect on gram-negative bacterial strains", "setting": "[22]", "value": "uncertain if any antimicrobial effect"}, {"measurement": "bactericidal (MBC within four fold of the MIC)", "setting": "[23]", "value": "bactericidal"}, {"measurement": "denaturation temperature (DSC)", "setting": "[24]; 10 mM citric acid, 50 mM sodium chloride, pH 2.5", "value": 55, "unit": "°C"}, {"measurement": "denaturation temperature (DSC)", "setting": "[24]; 10 mM sodium acetate, 50 mM NaCl, pH 4.0", "value": 69, "unit": "°C"}, {"measurement": "denaturation temperature (DSC)", "setting": "[24]; 10 mM sodium phosphate, 50 mM NaCl, pH 7.0", "value": 60, "unit": "°C"}]}]}
